Earlier results in paper PMC9084902, “Low-Molecular Weight Protamine Overcomes Chondroitin Sulfate Inhibition of Neural Regeneration” (Frontiers in Cell and Developmental Biology, 2022).

What was measured:
CNS neurons = conditions: aggrecan and a CSPG mixture isolated from brain; ref Paveliev et al., 2016; cited from earlier work
Source text: (§1) Our candidate protein to overcome the CS inhibition on neurite outgrowth and regeneration has been HB-GAM (heparin-binding growth-associated molecule; pleiotrophin) that was initially isolated by screening for factors from juvenile rat brain that enhance neurite outgrowth in CNS neurons ([Rauvala, 1989]; [Li et al., 1990]; [Merenmies and Rauvala, 1990]). […] Furthermore, we have recently shown t ...

[1] = tested on: hemisection and hemicontusion spinal cord injury models; conditions: mice; ref Kulesskaya et al., 2021; cited from earlier work
Source text: as §1

glypican-1 = conditions: through heparan sulfate chains; ref Paveliev et al., 2016; cited from earlier work
Source text: In the case of HB-GAM we have identified glypican-1 as a neuron surface receptor using unbiased mass spectrometry search of neuron binding sites for the substrate-attached HB-GAM ([Paveliev et al., 2016]). […] Interaction of glypican-1 with LMWP also appears likely since LMWP binds to heparin/heparan sulfate chains. Another possible cell surface receptor of LMWP is the transmembrane receptor PTPRZ (protein tyrosine ph ...

[2] = ref Rauvala, 1989; cited from earlier work
Source text: Protamine is a small 33 amino acid long protein that takes part in DNA packing during spermatogenesis ([Kasinsky et al., 2011]). Over 60% of the salmon protamine sequence is comprised of arginines so that it interacts strongly with negatively charged DNA phosphates in vivo and potentially with any other negatively charged molecules. […] Protamine sulfate is therefore widely used as a drug in cardiopulmonary bypass surgery to stop the effect of heparin ([Kaneda et al., 2005]; [Bromfield et al. ... || The CS chains even enhance the neurite outgrowth-promoting effect of HB-GAM, and we have ended up in a model according to which the CS chains of the CSPGs display a positive role by concentrating HB-GAM on the matrix and presenting it to neuron surface receptors. According to our model, two polycationic regions separated by a linker are essential to reverse the CS inhibition of neurite outgrowth ([Paveliev et al., 2016]; [Rauvala et al., 2017]). To test our hypothesis we decided to search for peptide structures that are similar to HB-GAM and display similar binding properties. Protamine displa ...

B1: heparin-binding growth-associated molecule (protein, UniProt P63090 33-168, looked up)
Pleiotrophin: GKKEKPEKKVKKSDCGEWQWSVCVPTSGDCGLGTREGTRTGAECKQTMKTQRCKIPCNWKKQFGAECKYQFQAWGECDLNTALKTRTGSLKRALHNADCQKTVTISKPCGKLTKPKPQAESKKKKKEGKKQEKMLD
notes: initially isolated by screening for factors from juvenile rat brain that enhance neurite outgrowth in CNS neurons
neurite outgrowth on CSPG substrates (CNS neurons): overcomes the CS inhibition and enhances neurite outgrowth on CSPG substrates
functional recovery after spinal cord injury [1]: enhances functional recovery in hemisection and hemicontusion spinal cord injury models in mice
binding to glypican-1 (glypican-1): binds to HB-GAM through its heparan sulfate chains
binding to heparin [2]: binds avidly to heparin
